The chains are these.
B7: Rpt3 (natural protein)
chain: MEELGIVTPVEKAVEEKPAVKSYASLLAQLNGTVNNNSALSNVNSDIYFKLKKLEKEYELLTLQEDYIKDEQRHLKRELKRAQEEVKRIQSVPLVIGQFLEPIDQNTGIVSSTTGMSYVVRILSTLDRELLKPSMSVALHRHSNALVDILPPDSDSSISVMGENEKPDVTYADVGGLDMQKQEIREAVELPLVQADLYEQIGIDPPRGVLLYGPPGTGKTMLVKAVANSTKAAFIRVNGSEFVHKYLGEGPRMVRDVFRLARENAPSIIFIDEVDSIATKRFDAQTGSDREVQRILIELLTQMDGFDQSTNVKVIMATNRADTLDPALLRPGRLDRKIEFPSLRDRRERRLIFGTIASKMSLAPEADLDSLIIRNDSLSGAVIAAIMQEAGLRAVRKNRYVILQSDLEEAYATQVKTDNTVDKFDFYK

Common to all, as to assay: cryo-EM structure
The test “Rpt3” deals with B7.
The next test addresses T1, Rpn5 (S. cerevisiae, UniProt Q12250 1-445).
T1 sequence: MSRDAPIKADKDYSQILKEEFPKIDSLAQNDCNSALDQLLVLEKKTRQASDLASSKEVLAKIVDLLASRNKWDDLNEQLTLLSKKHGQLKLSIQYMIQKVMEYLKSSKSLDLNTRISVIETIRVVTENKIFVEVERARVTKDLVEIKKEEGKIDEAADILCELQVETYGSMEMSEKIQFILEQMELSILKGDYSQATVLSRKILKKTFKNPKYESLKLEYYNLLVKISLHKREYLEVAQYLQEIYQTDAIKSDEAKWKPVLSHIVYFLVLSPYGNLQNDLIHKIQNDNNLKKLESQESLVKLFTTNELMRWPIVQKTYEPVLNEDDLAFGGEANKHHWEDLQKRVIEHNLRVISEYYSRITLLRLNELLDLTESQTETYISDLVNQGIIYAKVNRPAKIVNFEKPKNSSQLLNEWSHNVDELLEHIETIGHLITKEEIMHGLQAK

The next test has as its target T2, Rpn2 (S. cerevisiae, UniProt P32565 1-945).
T2 sequence: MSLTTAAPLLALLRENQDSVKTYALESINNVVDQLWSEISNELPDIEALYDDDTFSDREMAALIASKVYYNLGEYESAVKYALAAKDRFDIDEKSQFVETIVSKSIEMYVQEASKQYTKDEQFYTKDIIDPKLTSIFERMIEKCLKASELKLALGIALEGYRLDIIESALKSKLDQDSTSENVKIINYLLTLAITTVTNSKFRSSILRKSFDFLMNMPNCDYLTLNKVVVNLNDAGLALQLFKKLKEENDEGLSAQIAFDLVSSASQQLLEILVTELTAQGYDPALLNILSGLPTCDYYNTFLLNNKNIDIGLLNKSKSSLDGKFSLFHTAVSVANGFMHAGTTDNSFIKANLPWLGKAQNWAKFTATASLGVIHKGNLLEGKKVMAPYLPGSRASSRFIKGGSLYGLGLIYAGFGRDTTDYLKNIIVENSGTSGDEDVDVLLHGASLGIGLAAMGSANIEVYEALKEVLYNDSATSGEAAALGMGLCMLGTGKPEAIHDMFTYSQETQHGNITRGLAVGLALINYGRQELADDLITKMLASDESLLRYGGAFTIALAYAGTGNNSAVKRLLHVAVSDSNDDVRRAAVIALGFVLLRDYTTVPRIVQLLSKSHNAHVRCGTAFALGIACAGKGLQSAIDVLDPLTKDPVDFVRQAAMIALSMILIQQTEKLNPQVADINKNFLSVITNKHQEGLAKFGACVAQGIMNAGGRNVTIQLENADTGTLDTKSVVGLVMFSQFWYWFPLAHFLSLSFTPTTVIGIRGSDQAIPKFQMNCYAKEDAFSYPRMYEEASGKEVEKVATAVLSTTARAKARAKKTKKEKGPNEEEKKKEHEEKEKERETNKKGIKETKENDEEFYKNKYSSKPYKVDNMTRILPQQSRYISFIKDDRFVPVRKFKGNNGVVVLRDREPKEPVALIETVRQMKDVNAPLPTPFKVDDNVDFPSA

In the next test the target is Rpt2 (S. cerevisiae, UniProt P40327 1-437).
Rpt2, sequence (P40327 whole entry): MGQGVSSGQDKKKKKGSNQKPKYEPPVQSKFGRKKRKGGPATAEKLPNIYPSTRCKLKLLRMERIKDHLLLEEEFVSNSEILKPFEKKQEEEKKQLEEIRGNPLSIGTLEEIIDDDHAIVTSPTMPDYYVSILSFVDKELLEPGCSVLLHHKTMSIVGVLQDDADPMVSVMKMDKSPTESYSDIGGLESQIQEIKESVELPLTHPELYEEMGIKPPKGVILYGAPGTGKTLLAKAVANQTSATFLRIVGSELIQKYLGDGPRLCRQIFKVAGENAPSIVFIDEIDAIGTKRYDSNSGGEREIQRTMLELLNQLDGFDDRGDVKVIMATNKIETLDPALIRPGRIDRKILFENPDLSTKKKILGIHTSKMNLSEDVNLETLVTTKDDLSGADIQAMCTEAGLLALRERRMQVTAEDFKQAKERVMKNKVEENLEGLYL
Another test has as its target T3, Rpn6 (S. cerevisiae, UniProt Q12377 1-434).
T3 sequence: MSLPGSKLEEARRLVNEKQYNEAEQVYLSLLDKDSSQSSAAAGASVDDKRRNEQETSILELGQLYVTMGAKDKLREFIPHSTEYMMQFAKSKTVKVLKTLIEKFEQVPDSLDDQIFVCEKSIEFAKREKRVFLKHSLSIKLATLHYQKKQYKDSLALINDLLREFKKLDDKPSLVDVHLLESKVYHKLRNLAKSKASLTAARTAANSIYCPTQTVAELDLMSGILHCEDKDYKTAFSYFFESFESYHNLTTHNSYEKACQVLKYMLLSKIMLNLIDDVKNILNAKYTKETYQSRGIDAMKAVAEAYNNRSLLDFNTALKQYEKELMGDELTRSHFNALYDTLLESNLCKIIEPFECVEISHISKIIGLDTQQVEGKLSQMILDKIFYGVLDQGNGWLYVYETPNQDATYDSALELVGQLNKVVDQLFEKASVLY

B1: 20S core subunit α1 (natural protein)
chain: MSGAAAASAAGYDRHITIFSPEGRLYQVEYAFKATNQTNINSLAVRGKDCTVVISQKKVPDKLLDPTTVSYIFCISRTIGMVVNGPIPDARNAALRAKAEAAEFRYKYGYDMPCDVLAKRMANLSQIYTQRAYMRPLGVILTFVSVDEELGPSIYKTDPAGYYVGYKATATGPKQQEITTNLENHFKKSKIDHINEESWEKVVEFAITHMIDALGTEFSKNDLEVGVATKDKFFTLSAENIEERLVAIAEQD
Consider B1, for which the binding result in the test with Rpt3 and with Rpn5 was “binds” throughout.

B2: Rpn13 (natural protein)
chain: MSMSSTVIKFRAGVCEYNEDSRLCTPIPVQGEIEIKPNEEEELGFWDFEWRPTEKPVGRELDPISLILIPGETMWVPIKSSKSGRIFALVFSSNERYFFWLQEKNSGNLPLNELSAKDKEIYNKMIGVLNNSSESDEEESNDEKQKAQDVDVSMQD
Regarding B2, in the test with Rpn2, the binding result is given as “binds”.

B3: Rpn7 (natural protein)
chain: MVDVEEKSQEVEYVDPTVNRVPNYEVSEKAFLLTQSKVSIEQRKEAAEFVLAKIKEEEMAPYYKYLCEEYLVNNGQSDLEHDEKSDSLNEWIKFDQELYNELCKKNESKIKELNEKIQKLEEDDEGELEQAQAWINLGEYYAQIGDKDNAEKTLGKSLSKAISTGAKIDVMLTIARLGFFYNDQLYVKEKLEAVNSMIEKGGDWERRNRYKTYYGIHCLAVRNFKEAAKLLVDSLATFTSIELTSYESIATYASVTGLFTLERTDLKSKVIDSPELLSLISTTAALQSISSLTISLYASDYASYFPYLLETYANVLIPCKYLNRHADFFVREMRRKVYAQLLESYKTLSLKSMASAFGVSVAFLDNDLGKFIPNKQLNCVIDRVNGIVETNRPDNKNAQYHLLVKQGDGLLTKLQKYGAAVRLTGSDRV
For the molecule B3, the binding result in the test with Rpt2 is recorded as “binds”.

B4: 20S core subunit α2 (natural protein)
chain: MTDRYSFSLTTFSPSGKLGQIDYALTAVKQGVTSLGIKATNGVVIATEKKSSSPLAMSETLSKVSLLTPDIGAVYSGMGPDYRVLVDKSRKVAHTSYKRIYGEYPPTKLLVSEVAKIMQEATQSGGVRPFGVSLLIAGHDEFNGFSLYQVDPSGSYFPWKATAIGKGSVAAKTFLEKRWNDELELEDAIHIALLTLKESVEGEFNGDTIELAIIGDENPDLLGYTGIPTDKGPRFRKLTSQEINDRLEAL
Turning to B4, the binding result in the test with Rpt3 and in the test with Rpn6 was “binds” in each case.

B5: Rpn12 (natural protein)
chain: MPSLAELTKSLSIAFENGDYAACEKLLPPIKIELIKNNLLIPDLSIQNDIYLNDLMITKRILEVGALASIQTFNFDSFENYFNQLKPYYFSNNHKLSESDKKSKLISLYLLNLLSQNNTTKFHSELQYLDKHIKNLEDDSLLSYPIKLDRWLMEGSYQKAWDLLQSGSQNISEFDSFTDILKSAIRDEIAKNTELSYDFLPLSNIKALLFFNNEKETEKFALERNWPIVNSKVYFNNQSKEKADYEDEMMHEEDQKTNIIEKAMDYAISIENIV
On to B5, for which the binding result with Rpn2 is recorded as “binds”.

B6: 20S core subunit α3 (natural protein)
chain: MGSRRYDSRTTIFSPEGRLYQVEYALESISHAGTAIGIMASDGIVLAAERKVTSTLLEQDTSTEKLYKLNDKIAVAVAGLTADAEILINTARIHAQNYLKTYNEDIPVEILVRRLSDIKQGYTQHGGLRPFGVSFIYAGYDDRYGYQLYTSNPSGNYTGWKAISVGANTSAAQTLLQMDYKDDMKVDDAIELALKTLSKTTDSSALTYDRLEFATIRKGANDGEVYQKIFKPQEIKDILVKTGITKKDEDEEADEDMK
For the molecule B6, the binding result in the test with Rpt2 is listed as “binds”.

As for B7, the binding result with Rpn2, with Rpn5 and with Rpn6 was “binds” each time.

These data come from article PMC3285539 (Nature, 2012).
